Where a chain is given by its changes, count along the chain named. In names and notes the source's numbering stands. Entries after “also recorded” stand apart in the source; their conditions may differ. One block for each molecule: values may come before it.
Tests used:
PC9-GR cells = test: Apoptosis by FACS in gefitinib-resistant PC9-GR cells; assay type: cell-based; conditions: 24 hours
Experimental: (§1) 24 hours later, after treating with 5 μg/mL gefitinib or 5 μg/mL gefitinib and 5 μg/mL 4-1H or EP-10H diluted with 500 μL of RPMI, the cells were cultured again for 24 hours under the condition of 37° C. and 5% CO2. Then, apoptotic cells were analyzed with the FACS analysis equipment Attune N×T using 7-AAD and an FITC annexin V apoptosis detection kit (FIG. 7b).

PC9 NSCLC cells = test: Apoptosis by FACS in PC9 NSCLC cells; assay type: cell-based; conditions: 5 μg/mL gefitinib alone, 24 hours
Experimental: as §1

K562 cells = test: Apoptosis by FACS in K562 cells; assay type: cell-based; conditions: 2 μM imatinib alone, 24 hours
Experimental: (§2) Immediately thereafter, the cells were treated with 2 μM imatinib or with 2 μM imatinib and 10 μg/mL 4-1H or EP-10H diluted with 500 μL of RPMI, and then cultured under the condition of 37° C. and 5% CO2 for 24 hours. Then, apoptotic cells were analyzed with the FACS analysis equipment Attune N×T using 7-AAD and an FITC annexin V apoptosis detection kit (FIG. 6b).

K562-IR cells = test: Apoptosis by FACS in imatinib-resistant K562-IR cells; assay type: cell-based; conditions: 24 hours
Experimental: as §2

Ramos cells = test: CDC / apoptosis by FACS in Ramos cells with complement human serum; assay type: cell-based; conditions: rituximab alone, method of Example 10-1
Ramos-RR cells = test: CDC / apoptosis by FACS in rituximab-resistant Ramos-RR cells with complement human serum; assay type: cell-based; conditions: method of Example 10-1
[1] = tested on: Burkitt lymphoma BJAB cells; test: CDC / apoptosis by FACS (annexin V/7-AAD) in BJAB cells with complement human serum; assay type: cell-based; conditions: 50% complement human serum, 1 hour
Source text: BJAB cells have complement resistance and this is due to the expression of CD55 (Golay, et al., Blood, 95 (12):3900-8, 2000). For this reason, they show low response to rituximab the main therapeutic mechanism of which is CDC (complement-dependent cytotoxicity). In order to confirm the possibility of improving the therapeutic effect of rituximab for Burkitt lymphoma, which is known as malignant B cell lymphoma, the apoptotic ability of co-administration with EP-10H in Burkitt lymphoma BJAB cells was investigated. For investigation of the effect of co-administration, 5×10^5 BJAB cells were cultured for 1 hour under the condition of 37° C. and 5% CO2 after treating with 100 μL of RPMI supplemented with 50% complement human serum (Sigma, USA), containing 50 μg/mL of 4-1H or EP-10H and 20 μg/mL of rituximab. Then, CDC was observed by identifying apoptotic cells with Attune N×T (ThermoFisher Scientific, USA), which is a FACS analysis equipment, using an FITC annexin V apoptosis detection kit with 7-AAD (BioLegend, USA) (FIG. 4). […] It was confirmed that this effect was more significant for EP-10H having higher affinity for CD55.
The apoptotic ability of the CD20×CD55 bispecific antibody was investigated by the method of Example 10-1. […]

[2] = biological target: T1, recombinant human CD55 (R&D Systems 2009-CD/CF) (human, UniProt P08174 35-353); test: indirect ELISA, recombinant human CD55 coated
T1 construct: Bought recombinant protein coated on ELISA plates; also called decay-accelerating factor; DAF
T1 sequence (looked up): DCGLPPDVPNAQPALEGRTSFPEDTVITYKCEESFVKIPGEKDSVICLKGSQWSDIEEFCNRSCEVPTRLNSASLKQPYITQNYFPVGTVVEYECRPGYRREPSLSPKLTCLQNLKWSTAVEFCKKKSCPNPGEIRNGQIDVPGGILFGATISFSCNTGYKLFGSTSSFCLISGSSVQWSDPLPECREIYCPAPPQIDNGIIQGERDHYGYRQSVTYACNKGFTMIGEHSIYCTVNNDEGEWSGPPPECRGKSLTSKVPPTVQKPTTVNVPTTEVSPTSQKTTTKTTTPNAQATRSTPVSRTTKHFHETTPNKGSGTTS

[3] = biological target: T2, CD55 on cells (BJAB, Ramos, Ramos-RR, K562, K562-IR, PC9, PC9-GR) (UniProt P08174 35-353, limits assumed); test: flow cytometry, Ramos and Ramos-RR cells stained with 10 µg/mL EP-10H and anti-human IgG Alexa Fluor 488
T2 construct: whole, on cells; Endogenous CD55 on cell lines used for flow cytometry and cell death assays; also called CD55 receptor
T2 sequence (looked up): T1 sequence (looked up)
Experimental: 5×10⁵ Ramos or Ramos-RR cells were suspended in PBS containing or not containing 10 μg/mL of the EP-10H monoclonal antibody and cultured at 4° C. for 1 hour. The culture was centrifuged at 4,000 rpm for 5 minutes and centrifuged again at 4,000 rpm for 5 minutes after washing with 100 μL of PBS. After treating the cells with goat anti-human IgG antibody diluted to 1:100 using PBS and Alexa Fluor 488 (ThermoFisher Scientific, USA), they were incubated at 4° C. for 30 minutes in the shade. The fluorescence-stained cells were washed with PBS, suspended in 400 μL of PBS and then analyzed using Attune N×T (ThermoFisher Scientific, USA), which is a FACS analysis equipment.

recombinant human CD55 = biological target: T3, recombinant human CD55 (Homo sapiens, UniProt P08174); test: Indirect ELISA, affinity for CD55; assay type: binding; conditions: full-length antibody 0.0001-10 nM on CD55 coated at 1 μg/mL
T3 construct: purchased R&D Systems 2009-CD/CF
T3 sequence (P08174 35-353): T1 sequence (looked up)
Experimental: (§3) The binding ability of the G4-1H monoclonal antibody prepared in Example 2 for CD55 was investigated by indirect ELISA. For the indirect ELISA, recombinant human CD55 (R&D Systems, USA) diluted to 1 μg/mL in 50 μL of PBS was added to a 96-well immunoplate (Corning, USA) and then adsorbed by keeping at 4° C. overnight. After incubation for 1 hour at room temperature in a buffer containing 3% bovine serum albumin (Millipore, USA), followed by washing with a buffer containing 0.5% Tween 20 (Amresco, USA) three times, 50 μL of the serially diluted antibody (0.0001, 0.0003, 0.001, 0.003, 0.01, 0.03, 0.1, 0.3, 1, 3 and 10 nM) was treated per well. After incubation at room temperature for 2 hours for antibody-antigen binding, the antibody-antigen complex was washed three times with a buffer containing 0.5% Tween 20 (Amresco, USA). After treating with 50 μL of anti-human immunoglobulin Fc-HRP antibody (Jackson Immunoresearch, USA) diluted to 1:3,000 per well, followed by incubation at room temperature for 1 hour and washing three times with a buffer containing 0.5% Tween 20 (Amresco, USA), color development was conducted for 10 minutes by adding 50 μL of 3,3′,5,5′-tetramethylbenzidine (TMB) (ThermoFisher Scientific, USA).
The affinity of the antibodies screened in Example 6 for CD55 was investigated by indirect ELISA. The indirect ELISA was conducted in the same manner as in Example 3.
The affinity of the antibodies prepared in Example 8 for CD55 was investigated by indirect ELISA. The indirect ELISA was conducted in the same manner as in Example 3. […]

[4] = biological target: T1, recombinant human CD55 (R&D Systems …); test: indirect ELISA, recombinant human CD55 coated, anti-human Fc-HRP
Experimental: as §3

Molecule: COc1cc2ncnc(Nc3ccc(F)c(Cl)c3)c2cc1OCCCN1CCOCC1 [Gefitinib, gefitinib, reference compound]
induction of apoptosis (PC9-GR cells; 5 μg/mL gefitinib alone): did not show the effect | induction of apoptosis (PC9 NSCLC cells): induced apoptosis

Molecule: Cc1ccc(NC(=O)c2ccc(CN3CCN(C)CC3)cc2)cc1Nc1nccc(-c2cccnc2)n1 [Imatinib, imatinib, reference compound]
induction of apoptosis (K562 cells): induced apoptosis | induction of apoptosis (K562-IR cells; 2 μM imatinib alone): did not show the effect

Molecule: rituximab [reference compound]
induction of apoptosis (Ramos cells): induced apoptosis | induction of apoptosis (Ramos-RR cells; rituximab alone): the induction of apoptosis in the Ramos-RR cells was lower than in the Ramos cells | response to rituximab (CDC, apoptotic cells) ([1]; 20 μg/mL rituximab alone): low response

binding result [2]: binds | binding result [3]: binds
B1: EP-10H (antibody, V domains shown)
VH: EVQLVESGGGLVQPGGSLRLSCAASGFTFSDRGMAWVRQAPGKGLEWVSGISSSGRYTYYAPAVKGRATISRDNSKNTLYLQMNSLRAEDTAVYYCAKNAVAGGWHAAYIDAWGQGTTVTVSS
VL: SYELTQPPSVSVSPGQTASITCSGGGGSYGWYQQKPGQSPVTVIYWNDKRPSGIPERFSGSKSGNTATLTISGTQAMDEADYYCGGWDSSTYAIFGGGTKLTVL
notes: Tested as full-length IgG; Differs from G4-1H only at the H100A site (G to V); also called EP-10H monoclonal antibody; EP-10H antibody

affinity for CD55 (indirect ELISA, absorbance at 450 nm) (recombinant human CD55): comparable affinity
B2: EP-10H: anti-CD55 antibody different from G4-1H only at the H100A site (G to V), VL SEQ ID NO 4, VH SEQ ID NO 19 (antibody, V domains shown)
VH: B1 VH
VL: B1 VL
modifications: EP-1E_VH; G4-1H_VL
apoptosis on co-administration with gefitinib (PC9-GR cells; 5 μg/mL gefitinib + 5 μg/mL anti-CD55 antibody): apoptosis was induced; also recorded: higher apoptotic effect than the co-administration of 4-1H and gefitinib | apoptosis by rituximab on co-administration with anti-CD55 antibody (Ramos-RR cells; anti-CD55 antibody + rituximab): increased apoptosis; also recorded: more significantly increased the apoptosis by rituximab as compared to the co-administration with 4-1H | apoptosis on co-administration with imatinib (K562-IR cells; 2 μM imatinib + 10 μg/mL anti-CD55 antibody): apoptosis was induced; also recorded: higher apoptotic effect than the co-administration of 4-1H and imatinib | effect of rituximab (CDC, apoptotic cells) on co-administration with anti-CD55 antibody ([1]; 50 μg/mL anti-CD55 antibody + 20 μg/mL rituximab): the effect was increased; also recorded: The increase was higher for a combination of rituximab and EP-10H than a combination of rituximab and 4-1H

binding result [4]: binds
B3: G4-1H (antibody, V domains shown)
VH: B1 VH with V101G
VL: B1 VL
notes: Tested as complete antibody (full-length IgG); also called humanized 4-1H antibody; G4-1H monoclonal antibody
